Patent US20210032299A1
Starred links: 1 amine or outer side, 2 acyl side, 3 side chain; linkers in the order of their positions; H or OH if unused. Non-standard residues stand in square brackets, D forms with d. Groups on a side chain read outwards from the residue. No end group written: not given here. *: point of attachment. C20 diacid = O=C(O)CCCCCCCCCCCCCCCCCCC(=O)*; γGlu = O=C(O)[C@H](CCC(=O)[*:2])N[*:1]; αMeL = CC(C)C[C@](C)(N)C(=O)O; Orn = NCCC[C@H](N)C(=O)O; AEEA = NCCOCCOCC(=O)O; Aib = CC(C)(N)C(=O)O

T1: human glucose-dependent insulinotropic polypeptide (GIP) receptor (human), P48546
T1 chain: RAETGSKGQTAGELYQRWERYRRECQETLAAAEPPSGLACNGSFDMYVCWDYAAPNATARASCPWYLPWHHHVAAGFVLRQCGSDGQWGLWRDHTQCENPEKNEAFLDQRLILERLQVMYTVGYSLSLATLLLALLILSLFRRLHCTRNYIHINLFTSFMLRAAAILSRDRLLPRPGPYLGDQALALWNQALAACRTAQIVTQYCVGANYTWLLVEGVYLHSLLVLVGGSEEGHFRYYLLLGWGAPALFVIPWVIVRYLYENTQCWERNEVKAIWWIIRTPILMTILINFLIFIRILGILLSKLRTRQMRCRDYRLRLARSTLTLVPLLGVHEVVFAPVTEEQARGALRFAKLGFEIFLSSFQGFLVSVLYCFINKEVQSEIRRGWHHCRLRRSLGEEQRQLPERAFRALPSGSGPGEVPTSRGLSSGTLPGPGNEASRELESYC

B1: Example 106 (peptide)
peptide: Y[Aib]EGTFISDYSI[αMeL]LD[Orn]IHQ[Aib]EFVEYK([AEEA-AEEA-γGlu-C20 diacid])LEQGPSSGAPPPS-NH2
modifications: N-terminus assumed
SMILES: CC[C@H](C)[C@H](NC(=O)[C@H](CCCN)NC(=O)[C@H](CC(=O)O)NC(=O)[C@H](CC(C)C)NC(=O)[C@](C)(CC(C)C)NC(=O)[C@@H](NC(=O)[C@H](CO)NC(=O)[C@H](Cc1ccc(O)cc1)NC(=O)[C@H](CC(=O)O)NC(=O)[C@H](CO)NC(=O)[C@@H](NC(=O)[C@H](Cc1ccccc1)NC(=O)[C@@H](NC(=O)CNC(=O)[C@H](CCC(=O)O)NC(=O)C(C)(C)NC(=O)[C@@H](N)Cc1ccc(O)cc1)[C@@H](C)O)[C@@H](C)CC)[C@@H](C)CC)C(=O)N[C@@H](Cc1c[nH]cn1)C(=O)N[C@@H](CCC(N)=O)C(=O)NC(C)(C)C(=O)N[C@@H](CCC(=O)O)C(=O)N[C@@H](Cc1ccccc1)C(=O)N[C@H](C(=O)N[C@@H](CCC(=O)O)C(=O)N[C@@H](Cc1ccc(O)cc1)C(=O)N[C@@H](CCCCNC(=O)COCCOCCNC(=O)COCCOCCNC(=O)CC[C@H](NC(=O)CCCCCCCCCCCCCCCCCCC(=O)O)C(=O)O)C(=O)N[C@@H](CC(C)C)C(=O)N[C@@H](CCC(=O)O)C(=O)N[C@@H](CCC(N)=O)C(=O)NCC(=O)N1CCC[C@H]1C(=O)N[C@@H](CO)C(=O)N[C@@H](CO)C(=O)NCC(=O)N[C@@H](C)C(=O)N1CCC[C@H]1C(=O)N1CCC[C@H]1C(=O)N1CCC[C@H]1C(=O)N[C@@H](CO)C(N)=O)C(C)C
B2: Example 107 (peptide)
peptide: Y[Aib]EGTFISDYSI[αMeL]LD[Orn]IHQ[Aib]EFVEYK([AEEA-AEEA-γGlu-C20 diacid])LEGGPSSGAPPPS-NH2
modifications: N-terminus assumed
SMILES: CC[C@H](C)[C@H](NC(=O)[C@H](CCCN)NC(=O)[C@H](CC(=O)O)NC(=O)[C@H](CC(C)C)NC(=O)[C@](C)(CC(C)C)NC(=O)[C@@H](NC(=O)[C@H](CO)NC(=O)[C@H](Cc1ccc(O)cc1)NC(=O)[C@H](CC(=O)O)NC(=O)[C@H](CO)NC(=O)[C@@H](NC(=O)[C@H](Cc1ccccc1)NC(=O)[C@@H](NC(=O)CNC(=O)[C@H](CCC(=O)O)NC(=O)C(C)(C)NC(=O)[C@@H](N)Cc1ccc(O)cc1)[C@@H](C)O)[C@@H](C)CC)[C@@H](C)CC)C(=O)N[C@@H](Cc1c[nH]cn1)C(=O)N[C@@H](CCC(N)=O)C(=O)NC(C)(C)C(=O)N[C@@H](CCC(=O)O)C(=O)N[C@@H](Cc1ccccc1)C(=O)N[C@H](C(=O)N[C@@H](CCC(=O)O)C(=O)N[C@@H](Cc1ccc(O)cc1)C(=O)N[C@@H](CCCCNC(=O)COCCOCCNC(=O)COCCOCCNC(=O)CC[C@H](NC(=O)CCCCCCCCCCCCCCCCCCC(=O)O)C(=O)O)C(=O)N[C@@H](CC(C)C)C(=O)N[C@@H](CCC(=O)O)C(=O)NCC(=O)NCC(=O)N1CCC[C@H]1C(=O)N[C@@H](CO)C(=O)N[C@@H](CO)C(=O)NCC(=O)N[C@@H](C)C(=O)N1CCC[C@H]1C(=O)N1CCC[C@H]1C(=O)N1CCC[C@H]1C(=O)N[C@@H](CO)C(N)=O)C(C)C

Assays:
[1] = biological target: T1, human glucose-dependent insulinotropic …; assay: SPA, displacement of [125I]-GIP from hGIPR membranes, 0.1% bacitracin
[2] = biological target: human glucagon receptor (human), P47871; assay: SPA, displacement of [125I]-Gcg from hGcgR membranes, 0.1% bacitracin
human glucagon receptor (human), P47871, sequence (P47871 26-477): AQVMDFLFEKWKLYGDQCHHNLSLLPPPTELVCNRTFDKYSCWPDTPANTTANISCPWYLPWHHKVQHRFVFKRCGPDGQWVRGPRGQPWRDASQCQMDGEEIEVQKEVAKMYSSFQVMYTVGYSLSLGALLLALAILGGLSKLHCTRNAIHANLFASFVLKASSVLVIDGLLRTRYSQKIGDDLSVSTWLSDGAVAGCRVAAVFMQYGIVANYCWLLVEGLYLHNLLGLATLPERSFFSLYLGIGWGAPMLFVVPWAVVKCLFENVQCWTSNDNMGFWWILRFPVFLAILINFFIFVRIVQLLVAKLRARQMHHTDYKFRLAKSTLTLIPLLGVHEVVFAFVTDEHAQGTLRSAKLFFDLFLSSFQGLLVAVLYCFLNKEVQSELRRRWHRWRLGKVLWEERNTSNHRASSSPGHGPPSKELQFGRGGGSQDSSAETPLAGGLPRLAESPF

Binder | Ki [1] [nM] | Ki [2] [nM]
B1 | 0.0918 | 304
B2 | 0.0722 | 347
